Data from patent US20200347143A1 (GLENMARK PHARMACEUTICALS S A, published 2020).
Values belong to the binder of their own block, whether it stands above or below them.

Columns and labels:
human OX40 on cells [1] = biological target: T1, human OX40 on cells (human, UniProt P43489 29-277); assay: cell-based or functional assay
T1 sequence (looked up): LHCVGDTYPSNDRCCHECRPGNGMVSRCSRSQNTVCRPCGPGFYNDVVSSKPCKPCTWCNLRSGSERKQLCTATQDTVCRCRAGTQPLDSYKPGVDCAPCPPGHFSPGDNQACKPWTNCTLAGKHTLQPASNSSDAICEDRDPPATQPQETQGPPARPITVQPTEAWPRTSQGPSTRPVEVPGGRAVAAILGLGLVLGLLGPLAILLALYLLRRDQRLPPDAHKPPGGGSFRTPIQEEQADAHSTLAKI

human OX40 on cells [2] = biological target: T1, human OX40 on cells; assay: cell-based or functional assay; remark: listed apart in the source
human OX40 on cells [3] = biological target: T1, human OX40 on cells; assay: cell-based or functional assay; remark: listed apart in the source
[4] = biological target: T2, recombinant GITR molecule (R&D) (UniProt Q9Y5U5 26-161); assay: direct ELISA on coated recombinant GITR, detection streptavidin-HRP, absorbance 450 nm [panel GITR]
T2 sequence (looked up): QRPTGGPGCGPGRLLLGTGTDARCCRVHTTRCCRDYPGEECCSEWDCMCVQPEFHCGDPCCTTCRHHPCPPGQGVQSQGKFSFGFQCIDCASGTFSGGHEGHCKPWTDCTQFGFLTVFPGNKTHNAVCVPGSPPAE
Experimental: (§1) FIG. 13. A dose-response of various antibodies was incubated on various receptors, members of Tumor Necrosis Factor Receptor family, then detected with Streptavidin coupled with Horseradish Peroxidase enzyme. […] Each data point is the mean of duplicate values except for control curves that were performed in simplicate.
(§2) The experiment was conducted following the same protocol than previously described. […] These molecules were all coated at 2 μg/ml in PBS overnight at 4° C.

[5] = biological target: recombinant CD40 molecule (R&D) (UniProt P25942 21-193); assay: direct ELISA on coated recombinant CD40, detection streptavidin-HRP, absorbance 450 nm [panel CD40]
recombinant CD40 molecule (R&D), sequence (P25942 21-193 limits assumed): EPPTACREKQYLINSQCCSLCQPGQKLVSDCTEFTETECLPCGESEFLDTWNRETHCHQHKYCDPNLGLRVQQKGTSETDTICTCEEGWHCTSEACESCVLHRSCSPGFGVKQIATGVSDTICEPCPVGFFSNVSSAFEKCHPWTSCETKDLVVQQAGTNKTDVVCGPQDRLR
Experimental: as §1, §2

[6] = biological target: T3, recombinant DR6 molecule (R&D) (UniProt O75509 42-349, limits assumed); assay: direct ELISA on coated recombinant DR6, detection streptavidin-HRP, absorbance 450 nm [panel DR6]
T3 sequence (looked up): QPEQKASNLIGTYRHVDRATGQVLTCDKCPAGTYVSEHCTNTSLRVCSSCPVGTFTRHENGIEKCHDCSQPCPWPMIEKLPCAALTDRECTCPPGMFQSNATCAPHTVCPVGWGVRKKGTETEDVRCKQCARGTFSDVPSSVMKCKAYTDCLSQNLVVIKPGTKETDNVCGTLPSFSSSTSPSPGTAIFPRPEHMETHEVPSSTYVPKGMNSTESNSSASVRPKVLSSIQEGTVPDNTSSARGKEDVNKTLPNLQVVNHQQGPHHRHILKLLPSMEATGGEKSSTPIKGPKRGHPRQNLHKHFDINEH
Experimental: as §1, §2

rat OX40-Fc = rat OX40-Fc (rat); assay: ELISA on coated rat OX40-Fc
rat OX40-Fc (rat), sequence (chain, as listed by the source limits assumed): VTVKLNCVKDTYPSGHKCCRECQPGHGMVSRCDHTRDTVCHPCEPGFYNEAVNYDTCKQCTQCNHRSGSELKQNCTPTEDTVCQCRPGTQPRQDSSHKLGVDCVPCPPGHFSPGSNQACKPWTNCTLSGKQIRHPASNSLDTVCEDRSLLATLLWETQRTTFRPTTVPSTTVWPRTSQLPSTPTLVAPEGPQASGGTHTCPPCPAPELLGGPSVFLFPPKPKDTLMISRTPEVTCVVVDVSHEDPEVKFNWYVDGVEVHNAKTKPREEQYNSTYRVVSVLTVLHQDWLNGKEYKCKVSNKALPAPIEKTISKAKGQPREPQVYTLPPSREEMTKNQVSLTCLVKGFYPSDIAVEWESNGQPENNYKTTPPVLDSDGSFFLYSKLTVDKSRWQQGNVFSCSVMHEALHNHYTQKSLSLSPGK
Experimental: These constructs were expressed in HEK293-EBNA1 cells and purified using protein A. Then, human and rat OX40-Fc were tested in ELISA and Biacore to determine antibody cross-reactivity. For the ELISA, 96 well-microtiter plates (Costar USA, distributor VWR AG, Nyon, Switzerland) were coated with 100 μl of recombinant human or rat OX40-Fc at 2 μg/ml in PBS. Plates were incubated overnight at 4° C. and were then blocked with PBS 2% BSA (Bovine Serum Albumine, PAA Laboratories, Pasching, Austria) at room temperature (RT) for one hour. The blocking solution was removed and the purified antibodies were added at 10 μg/ml in PBS 2% BSA. The plates were incubated at RT for 1 hour, then washed 5 times with PBS 0.01% Tween-20 (Sigma-Aldrich Chemie GmbH, Buchs, Switzerland). […] Plates were incubated for 1 hour at RT, washed 5 times with PBS 0.01% Tween-20 and the TMB substrate (Bio-rad Laboratories AG, Reinach, Switzerland) was added to the plates and the reaction stopped after 5 minutes by adding H₂SO₄. Absorbance was then read at 450 nm by a microplate reader (Biotek, USA; distributor: WITTEC AG, Littau, Switzerland). Biacore experiments were specifically conducted with Hexa-hzG3V9 and Hexa-hz1D10v1 which are dAb-Fc fusion proteins. […] Binding of human and cyno OX40-Fc molecules was determined by successively injecting these proteins on the 4 flow-paths (flow-path 1 and 3 being used as references) at a concentration of 200 nM and a flow rate of 30 uL/min for 240 seconds. Regeneration between the two injections was done using 3M MgCl2, at 30 uL/min for 60 seconds. Using these two approaches, human/rat OX40 binding was assessed (table 16).

[7] = biological target: T4, recombinant DR3 molecule (R&D) (UniProt Q93038 25-199, limits assumed); assay: direct ELISA on coated recombinant DR3, detection streptavidin-HRP, absorbance 450 nm [panel DR3]
T4 sequence (looked up): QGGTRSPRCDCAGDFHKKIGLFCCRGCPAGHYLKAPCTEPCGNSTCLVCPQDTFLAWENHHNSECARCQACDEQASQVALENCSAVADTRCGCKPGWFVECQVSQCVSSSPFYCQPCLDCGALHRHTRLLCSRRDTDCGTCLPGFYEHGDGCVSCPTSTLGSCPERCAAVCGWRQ
Experimental: as §1, §2

[8] = biological target: T5, recombinant human OX40-his protein (human, UniProt P43489 29-214); assay: SPR, antibody captured on Protein A, OX40-his injected
T5 construct: Secreted via the native signal peptide, which lies within residues 1-214; also called Human OX40R-His; histidine tagged human OX40 receptor extracellular domain
T5 sequence: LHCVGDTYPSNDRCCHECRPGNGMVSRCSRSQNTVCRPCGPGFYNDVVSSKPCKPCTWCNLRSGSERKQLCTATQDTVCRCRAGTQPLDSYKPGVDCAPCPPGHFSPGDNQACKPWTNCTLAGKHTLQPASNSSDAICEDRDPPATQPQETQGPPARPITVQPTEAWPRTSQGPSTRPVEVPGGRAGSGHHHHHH
Experimental: (§3) Measurements were performed on CM5 sensor chips (Biacore 2000, GE Healthcare Europe GmbH, Cat. No: BR-1000-14) individually coupled with Protein A (Sigma, Buchs, Switzerland, Cat. No: P7837) using a commercial amine coupling kit (GE Healthcare Europe GmbH, Cat. No: BR-1000-50). 200-600 RUs of humanized antibody were captured. Dilution series of OX40-his were injected at a flow rate of 10 μl/min in HBS-EP buffer (GE Healthcare Europe GmbH, Cat. No: BR1001-88). After each binding event, the surface was regenerated with 10 μl of glycine buffer pH 1.5. Experimental data were processed using a 1:1 Langmuir model with local Rmax. The dissociation time was about 7 min. Measurements were performed in duplicates or triplicates and included zero-concentration samples for referencing. Both Chit and residual values were used to evaluate the quality of a fit between the experimental data and individual binding models.
Finally, Surface Plasmon Resonance analyses were applied to control antibody variant affinities as described earlier.

[9] = biological target: T5, recombinant human OX40-his protein; assay: as above; remark: listed apart in the source
Experimental: as §3
Humanized antibody candidates were then assayed for their binding affinity by SPR and Fab thermal stability by DSC.

[10] = biological target: T5, recombinant human OX40-his protein; assay: SPR (BIAcore 2000), antibody captured on Protein A, OX40-his injected
Experimental: SPR analysis was used to measure the association and dissociation rate constants for the binding kinetics of the anti-OX40 antibodies. The binding kinetics were measured on a BIAcore 2000 (BIAcore-GE Healthcare Europe GmbH, Glattbrugg, Switzerland) at room temperature and analyzed with the BiaEvaluation software (v4.1, GE Healthcare Europe GmbH).
as §3

human OX40 on cells [11] = biological target: T1, human OX40 on cells; assay: flow cytometry on HPB-ALL cells, 10 µg/ml antibody
Experimental: HPB-ALL cells (DSMZ, Braunschweig, Germany, Cat. No: ACC483) were used as a human OX40 positive cell line for FACS staining. HPB-ALL were maintained in RPMI 1640 supplemented with 10% FCS and 100 U/ml Penicillin and 100 μg/ml streptomycin. 4×10e5 HPB-ALL cells in FACS buffer (PBS supplemented with 1% BSA and 0.1% sodium azide) were incubated for 45 min on ice with the anti-OX40 antibody of interest kept at a concentration of 10 μg/ml An irrelevant human IgG1 was used as an isotype control; the cells were incubated with a 1/200 dilution of anti-Human Fc-PE (EBioscience, Vienna, Austria) for 45 min on ice. Cells were then washed again and resuspended in 200 μl FACS buffer. The relative mean fluorescence of each sample was measured on a FACSCalibur instrument (BD Biosciences, Allschwil, Switzerland).
A first set of 16 humanized antibodies of human gamma one isotype were prepared. These first humanized candidates were assessed for transient expression in HEK293E cells and binding to HB-ALL cell by flow cytometry (Table 7).

B4: Humanized 7H11 VH2 V37M/VL1 (antibody, human IgG1, kappa, V domains shown)
VH: QVQLVQSGAEVKKPGASVKVSCKASGYTFTRYYMHWMRQAPGQGLEWMGWIYPGDGSTNYAQKFQGRVTMTRDTSISTAYMELSRLRSDDTAVYYCAREYGNYDYWGQGTLVTVSS
VL: DIVMTQSPDSLAVSLGERATINCKSSQSLLNSGNQKNYLAWYQQKPGQPPKLLIYGASTRESGVPDRFSGSGSGTDFTLTISSLQAEDVAVYYCQNDHSYPYTFGQGTKLEIKR
notes: human IgG1, kappa
Kd [9]: 2.87 nM

B5: Humanized 7H11-VH2 N58K-D54S (antibody, human IgG1, kappa, V domains shown)
VH: QVQLVQSGAEVKKPGASVKVSCKASGYTFTRYYMHWVRQAPGQGLEWMGWIYPGSGSTKYAQKFQGRVTMTRDTSISTAYMELSRLRSDDTAVYYCAREYGNYDYWGQGTLVTVSS
VL: DIVMTQSPDSLAVSLGERATINCKSSQSLLNSGNQKNYLAWYQQKPGQPPKLLIYGASTRESGVPDRFSGSGSGTDFTLTISSLQAEDVAVYYCQNDHSYPYTFGQGTKLEIKR
notes: human IgG1, kappa; also called 7H11 VH D54S
Kd [8]: 49 nM

B6: Chimeric 7H11 IgG1 (antibody, V domains shown)
VH: QVQLQQSGPELVKPGASVKMSCKASGYTFTRYYIHWMNQRPGQGLEWIGWIYPGDGSTKYNEKFKGKTTLTADTSSSTAYMLLSSLTSEDSAIYFCAREYGNYDYWGQGTTVTVSS
VL: DIVMTQSPSSLSVSAGEKVTMSCKSSQSLLNSGNQKNYLAWYQQKPGQPPKLLIYGASTRESGVPDRFTGSGSGTDFTLTISSVQAEDLAVYYCQNDHSYPYTFGGGTKLEIK
notes: Mouse variable domains on human IgG1 heavy constant domains and human kappa constant domain; also called 7H11 (chimeric); chimeric 7H11 antibody
Kd [10]: 50 nM
koff [10]: 0.00066 s⁻¹
kon [10]: 11600 M⁻¹ s⁻¹
MFI (human OX40 on cells [11]): 132
Kd [9]: 50 nM

The remaining lines, values ahead:

% donor responder (>2), SEB assay, IL-2 release (human OX40 on cells [1]): 83%
Mean, normalized IL-2 release, SEB assay (human OX40 on cells [1]): 4.26
Mean (fold increase proliferation vs control), MLR assay (human OX40 on cells [2]): 1.54 fold
donors reaching a 1.2 fold induction of CD4+CD25+ cells compared to SEB only (human OX40 on cells [3]): 67%
B1: recombinant human OX40L-Fc protein (Fc fusion, not shown: a dimerising Fc or GST; small tags and cut ends)
chain: QVSHRYPRIQSIKVQFTEYKKEKGFILTSQKEDEIMKVQNNSVIINCDGFYLISLKGYFSQEVNISLHYQKDEEPLFQLKKVRSVNSLMVASLTYKDKVYLNVTTDNTSLDDFHVNGGELILIHQNPGEFCVL

binding result [4]: no binding (tested: 10 µg/ml)
binding result [5]: no binding (tested: 10 µg/ml)
binding result [6]: no binding (tested: 10 µg/ml)
binding result (rat OX40-Fc): no binding (tested: 10 µg/ml)
binding result [7]: no binding (tested: 10 µg/ml)
B2: 7H11 IgG1 (Humanized 7H11-VH2 N58K-D54E with 7H11 VL1) (antibody, V domains shown)
VH: QVQLVQSGAEVKKPGASVKVSCKASGYTFTRYYMHWVRQAPGQGLEWMGWIYPGEGSTKYAQKFQGRVTMTRDTSISTAYMELSRLRSDDTAVYYCAREYGNYDYWGQGTLVTVSS
VL: DIVMTQSPDSLAVSLGERATINCKSSQSLLNSGNQKNYLAWYQQKPGQPPKLLIYGASTRESGVPDRFSGSGSGTDFTLTISSLQAEDVAVYYCQNDHSYPYTFGQGTKLEIKR
notes: also called 7H11_v8 IgG1

Kd [8]: 32 nM
B3: Humanized 7H11-VH2 N58K-D54T (antibody, human IgG1, kappa, V domains shown)
VH: QVQLVQSGAEVKKPGASVKVSCKASGYTFTRYYMHWVRQAPGQGLEWMGWIYPGTGSTKYAQKFQGRVTMTRDTSISTAYMELSRLRSDDTAVYYCAREYGNYDYWGQGTLVTVSS
VL: DIVMTQSPDSLAVSLGERATINCKSSQSLLNSGNQKNYLAWYQQKPGQPPKLLIYGASTRESGVPDRFSGSGSGTDFTLTISSLQAEDVAVYYCQNDHSYPYTFGQGTKLEIKR
notes: human IgG1, kappa; also called 7H11 VH D54T
